The values that follow come from US20230104705A1 (CELLULAR BIOMEDICINE GROUP HK, published 2023).

One test addresses T1, CD20 (UniProt P11836 1-297).
T1 construct: whole, on cells; also called B1; CD20 on A549-CD20, A549-CD19-CD20, K562-CD20+, K562-CD19+CD20+, Raji and Ramos cells
T1 sequence (looked up): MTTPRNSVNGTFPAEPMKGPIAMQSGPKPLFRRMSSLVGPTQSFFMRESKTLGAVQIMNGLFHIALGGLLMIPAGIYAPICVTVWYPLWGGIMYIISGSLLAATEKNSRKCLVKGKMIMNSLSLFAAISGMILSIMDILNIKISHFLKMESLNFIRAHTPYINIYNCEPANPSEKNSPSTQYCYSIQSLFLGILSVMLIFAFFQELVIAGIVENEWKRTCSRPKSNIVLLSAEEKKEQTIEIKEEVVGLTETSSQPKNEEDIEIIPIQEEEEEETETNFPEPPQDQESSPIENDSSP
Kind of test: flow cytometry on A549-CD20, A549-CD19-CD20 and Raji cells, 20 µg/mL. The source says: (§1) To examine the affinity and specificity of the bi-specific scFv in TN-OF 19 CAR, a chimeric rabbit monoclonal antibody was generated by linking the CD20 scFv, derived from the Ofatumumab mAb and the CD19 scFv, derived from the FMC63 mAb in frame with a rabbit IgG1 Fc region. CD19 and CD20 scFvs were alternatively linked by a G4S linker. The molecular order is OF VL-VH-G4S-FMC63 VH-VL, which is the same as scFVs in TN-OF-19. The chimeric antibody was expressed in 293T cells after transient transfection. Validation of this chimeric antibody for specificity of staining was performed by flow cytometry. Briefly, three stable cell lines (A549-CD19, A549-CD20, A549-CD19-CD20) were used as targets, and CD19-CD20-A549 cells and CD19+CD20+ Raji cells were used as control. All cells were washed and resuspended, blocking by 2% serum for 30 minutes. 5×10⁵ cells were transferred to FACS vials, washed and stained with recombinant antibodies (final concentration 20 μg/mL) for 1 h at 4° C. After washing, the secondary antibody (goat anti-rabbit IgG) was added for 30 minutes in dark at 4° C. Finally, cells were washed and resuspended in 200 μL FACS buffer for FACS analysis.
For orientation: Flow cytometry measures light scatter and fluorescence of single cells or particles in a stream.

The target of the next test is T2, CD19 (UniProt P15391 20-556).
T2 construct: whole, on cells; also called CD19 on A549-CD19, A549-CD19-CD20, K562-CD19+, K562-CD19+CD20+ and Raji cells
T2 sequence (looked up): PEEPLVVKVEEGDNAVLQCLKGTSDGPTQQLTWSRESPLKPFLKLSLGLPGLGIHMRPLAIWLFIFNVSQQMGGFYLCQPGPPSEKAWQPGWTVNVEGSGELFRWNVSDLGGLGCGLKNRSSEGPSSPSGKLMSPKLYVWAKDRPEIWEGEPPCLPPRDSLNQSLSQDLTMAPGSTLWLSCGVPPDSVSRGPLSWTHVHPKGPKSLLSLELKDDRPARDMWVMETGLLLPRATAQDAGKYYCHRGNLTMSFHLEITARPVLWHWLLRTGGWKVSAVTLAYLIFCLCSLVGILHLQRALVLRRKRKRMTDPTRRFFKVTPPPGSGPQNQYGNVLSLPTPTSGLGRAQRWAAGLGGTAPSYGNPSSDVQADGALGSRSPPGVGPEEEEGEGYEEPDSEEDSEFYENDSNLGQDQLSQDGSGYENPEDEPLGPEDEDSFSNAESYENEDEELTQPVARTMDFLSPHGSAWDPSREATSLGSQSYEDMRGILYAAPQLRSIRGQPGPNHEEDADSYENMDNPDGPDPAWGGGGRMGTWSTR
Kind of test: flow cytometry on A549-CD19, A549-CD19-CD20 and Raji cells, 20 µg/mL.
Excerpt: as §1

B1: chimeric rabbit monoclonal antibody (CD20 scFv derived from the Ofatumumab mAb and CD19 scFv derived from the FMC63 mAb, in frame with a rabbit IgG1 Fc region; … (bispecific antibody)
chain: EIVLTQSPATLSLSPGERATLSCRASQSVSSYLAWYQQKPGQAPRLLIYDASNRATGIPARFSGSGSGTDFTLTISSLEPEDFAVYYCQQRSNWPITFGQGTRLEIKGSTSGGGSGGGSGGGGSSEVQLVESGGGLVQPGRSLRLSCAASGFTFNDYAMHWVRQAPGKGLEWVSTISWNSGSIGYADSVKGRFTISRDNAKKSLYLQMNSLRAEDTALYYCAKDIQYGNYYYGMDVWGQGTTVTVSSGGGGSEVKLQESGPGLVAPSQSLSVTCTVSGVSLPDYGVSWIRQPPRKGLEWLGVIWGSETTYYNSALKSRLTIIKDNSKSQVFLKMNSLQTDDTAIYYCAKHYYYGGSYAMDYWGQGTSVTVSSGSTSGSGKPGSGEGSTKGDIQMTQTTSSLSASLGDRVTISCRASQDISKYLNWYQQKPDGTVKLLIYHTSRLHSGVPSRFSGSGSGTDYSLTISNLEQEDIATYFCQQGNTLPYTFGGGTKLEIT
notes: Expressed in 293T cells after transient transfection; also called chimeric antibody; recombinant antibodies; not shown: rabbit IgG1 Fc region
With B1, the binding result with CD20 and in the test with CD19 was “binds” each time.
